Results taken from the supplement of paper PMC9732359.
± gives the uncertainty stated by the source.

Assay: protein stability index of a GFP-peptide fusion (yeast GPS) (PSI 1-4); higher = more stable; sorted into four equal gates, so the index is relative within each strain
Conditions: ubr1∆
Outline: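 Plasmids in a pooled yeast library fused tiled 17-residue yeast protein peptides downstream of GFP and also expressed Cherry. Mid-log cultures grown without leucine were sorted into four equal gates by GFP/Cherry fluorescence ratio. Each gate's plasmids were PCR-amplified and Illumina-sequenced, and reads were matched to strains by barcodes. The protein stability index is derived by multiplying each gate's read frequency by its gate number and summing the results.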

Point of comparison: GIRVQDSVILASSKAVT [PRE1], protein stability index 2.38 ± 0.05. Against it:
- FKSSVEMGKTDKSTKTA [YOR098C/NUP1] — higher, 3.43 ± 0.063
- FKSYATRTVITDWDPQF [SMC2] — higher, 2.85 ± 0.097
- FKVYEPLLLVGLDKFSN [RPS16A] — lower, 2.14 ± 0.043
- FLEKEKQLTLLRSKLFQ [SMC4] — higher, 2.56 ± 0.043
- FLFQNINFERIDEVFSW [GRR1] — lower, 2.28 ± 0.048
- FLKHNGEEDAVDLLLEI [RPN1] — higher, 3.3 ± 0.05
- FLLSAMTMASKSLEVVN [NSL1] — lower, 1.61 ± 0.047
- FLLTQSKVSIEQRKEAA [RPN7] — within error, 2.48 ± 0.058
- FLQELLKKVQQQQQAAA [SWI1] — higher, 2.85 ± 0.1
- FLQRIDFQIDGNIFELL [RRI2] — higher, 2.64 ± 0.048
- FLQSVDITGIRDVSDDV [GRR1] — lower, 1.69 ± 0.036
- FLRTQFLKLYVLVKWTR [RGR1] — lower, 1.56 ± 0.06
- FLTNYNVRMDTMANILY [RPB2] — higher, 3.48 ± 0.14
- FLVEYEGQENNYNSTSR [SIR4] — higher, 3.24 ± 0.052
- FMDEIDSIGSTRVEGSG [RPT6] — within error, 2.46 ± 0.073
- FMEIVLEYNVALNDVYL [YML031W/NDC1] — lower, 1.66 ± 0.064
- FMLRKQDPKTLVALLSR [SSN2] — lower, 2.09 ± 0.043
- FMNDAAADVSAVDAKQL [YML103C/NUP188] — lower, 2.21 ± 0.081
- FNFGGKSDTVTSASQPF [YOR098C/NUP1] — lower, 1.93 ± 0.049
- FNGIENQSAYEWNGKSF [ISW2] — higher, 3.22 ± 0.12
- FNLNLPPSSFGRSHTRN [REC8] — higher, 3.27 ± 0.19
- FNQEGDYNFKYGIPLEF [PRP8] — higher, 3.37 ± 0.077
- FNRDNKVSPAAAAKKAL [RPS26B] — higher, 2.79 ± 0.12
- FNSVKSFDEWFNTPFAN [SNF2] — higher, 3.26 ± 0.11
- FNTPFANTGGQDKIELS [SNF2] — lower, 1.87 ± 0.2
- FNVHEVPRAALEERFDP [YMR129W/POM152] — higher, 3.03 ± 0.079
- FPGDSFPVDPTTPVKLG [RRP40] — higher, 2.62 ± 0.048
- FPGKPVDVQAPTDDKTL [YOR098C/NUP1] — higher, 2.75 ± 0.071
- FPNGFKNFENGPKKNVF [RPC34] — higher, 3.44 ± 0.045
- FPPGVIGIDEGSDEAYV [RPC40] — higher, 3.51 ± 0.056
- FPQTAMLRRHAAPPSTN [DIS3] — lower, 1.74 ± 0.07
- FPRNGKAPEAEQVLSAA [RPL13A] — higher, 2.77 ± 0.05
- FQAQQAQQAQQAQQAQQ [SNF2] — higher, 2.73 ± 0.035
- FQIDNDNIRYATALQTC [SMC2] — lower, 1.74 ± 0.052
- FQKAQGSYAGHRKHIAV [YCG1] — within error, 2.46 ± 0.095
- FQNLELETEQLSSELDS [SMC2] — higher, 2.69 ± 0.13
- FQSVQLNINNPNFLIMQ [SMC2] — lower, 2.1 ± 0.061
- FRHFIGIKAKHDKNIQK [ISW2] — higher, 2.51 ± 0.078
- FRPIEIFTDFLPSSNGS [RRP42] — higher, 2.87 ± 0.063
- FSAPIRPDIVHTVFTSV [RPL4A] — lower, 2.16 ± 0.056
- FSEVYEYNRLKVQDAIE [LIN1] — higher, 2.89 ± 0.086
- FSFGGTQTGQNTGPSTG [YGL172W/NUP49] — higher, 3.1 ± 0.11
- FSFGKSDAAKEPPGSNT [YOR098C/NUP1] — higher, 2.68 ± 0.2
- FSMGHIRSSSVSLVAEA [MED4] — lower, 1.69 ± 0.033
- FSPDGHIFQVEYALEAV [PRE6] — higher, 3.18 ± 0.037
- FSQTVADNNDLQESINH [ECM29] — higher, 3.1 ± 0.048
- FSRHAQQQTSTFNSKPV [SIR4] — the same, 2.38 ± 0.047
- FSSSVSLSYMAFPNASK [RRP40] — lower, 1.72 ± 0.072
- FSYFFESFESYHNLTTH [RPN6] — higher, 2.78 ± 0.066
- FTGNNSTPGGGSVFNMN [YOR098C/NUP1] — higher, 3.03 ± 0.14
- FTICLNDRNPRLNENKK [CSN12] — higher, 3.06 ± 0.043
- FTLLDFKKQMQTIMKMG [SRP54] — higher, 2.71 ± 0.17
- FTNPSVDIQIINQYQLL [SWI1] — lower, 1.31 ± 0.063
- FTYNKFLLNQNKQLSQS [YIL149C/MLP2] — higher, 3.17 ± 0.062
- FVHSVKKFLRVRIFTKI [SRB4] — lower, 2.07 ± 0.059
- FVIRREVTKGEKTYTKA [RPS6A] — higher, 3.53 ± 0.13
- FVNGVATSFSRKKARTF [FAS2] — lower, 1.14 ± 0.074
- FVPVPALSAYHKVQTKL [RPS7B] — higher, 2.55 ± 0.032
- FVQLCEMGYLIQISKLH [RPC82] — lower, 1.96 ± 0.058
- FVSRIPIMFQDFDDSTA [IRR1] — lower, 2 ± 0.03
- FVTQFRHLRRTGKVSEF [RET1] — within error, 2.41 ± 0.075
- FYKLNMPDEFNTLYTAI [SRP72] — higher, 2.65 ± 0.043
- FYQGKTGVVYNVTKSSV [RPL21A] — higher, 2.65 ± 0.071
- FYSTNSQYFKFKNDFNS [RPN9] — higher, 2.5 ± 0.053
- GAKPAGSTGGLGASFGQ [YGL172W/NUP49] — higher, 3.54 ± 0.071
- GASINSMKANTSTNPNG [ARP7] — higher, 2.93 ± 0.058
- GASVISLTKDKSIRKDT [SIR4] — higher, 3.13 ± 0.072
- GCDENDSTVNKSITLKG [YDL088C/ASM4] — higher, 3.11 ± 0.066
- GCEANIHSLVKQRLDLA [YIL149C/MLP2] — higher, 3.19 ± 0.076
- GDNEYITLRTSGELLQG [MCD1] — higher, 3.36 ± 0.096
- GDTVQFAEYIQANIQLY [PRE1] — lower, 2.04 ± 0.053
- GDYNNTVYSSEQYIQEL [SMC3] — higher, 3.14 ± 0.042
- GDYVAYQLNGVAPFMIK [YMR129W/POM152] — lower, 1.84 ± 0.059
- GEDFMEVDYEDKDNPVD [SRB4] — higher, 3.32 ± 0.17
- GEENRVRFIGDSVAAIG [QCR2] — higher, 3 ± 0.24
- GEINKICMESLFLEPSW [PCI8] — lower, 1.99 ± 0.063
- GELRDYIEDFLLVIGGN [YJR042W/NUP85] — lower, 1.74 ± 0.037
- GEMERDCMIAHGAASFL [RPB2] — higher, 2.76 ± 0.089
- GENVFLKRISDGLSFGK [SIR3] — higher, 3.54 ± 0.09
- GEVLGITRFGLSKMRDS [RPO31] — higher, 3.46 ± 0.1
- GFIENCNGSALVEARSL [MTR3] — lower, 2.15 ± 0.12
- GFIFTSMILEAISTDKI [RRI2] — lower, 1.51 ± 0.083
- GGCDYIFSLLTGYPDEP [CYT1] — higher, 3.08 ± 0.081
- GGFEYFLQPLLLVGLIK [NUT1] — lower, 1.87 ± 0.12
- GGLGLNLQTADTVIIFD [SNF2] — higher, 3.38 ± 0.07
- GGNGPEDFQQHEQIRRK [RPO26] — higher, 3.44 ± 0.083
- GGVGSMGAINNNIPSLT [SNF6] — higher, 3.32 ± 0.1
- GHTLINNYKDLLAVAIA [RPP0] — lower, 1.18 ± 0.16
- GIFIKILNDSLIYHLKD [IRR1] — lower, 1.75 ± 0.033
- GIGGDHAKFSPVSTASY [RPC40] — higher, 2.9 ± 0.062
- GIIVAVDSRATAGNWVA [PRE2] — lower, 1.54 ± 0.082
- GIKVSLLGIFDDIFIPQ [RPC25] — lower, 1.77 ± 0.081
- GILGNKAQAKMDKRAKN [RPL8A] — higher, 3.63 ± 0.076
- GILLLDSLIQLANRSKE [YJL039C/NUP192] — lower, 1.97 ± 0.051
- GINKNEEYRKQLDKKNE [SMC1] — higher, 2.58 ± 0.045
- GITAVHVKIRATGGTRT [RPS14B] — lower, 1.24 ± 0.047
- GIVETNRPDNKNAQYHL [RPN7] — higher, 3.06 ± 0.054
- GKALVHHYEECAERVKI [QCR6] — higher, 3.39 ± 0.074
- GKETIARVTGGMKVKAD [RPS14B] — higher, 2.6 ± 0.11
- GKGRQSAKAELEKLVDH [PRE10] — lower, 1.14 ± 0.088
- GKHSIGLIWYLLAREVL [RPS0A] — lower, 2.06 ± 0.054
